# Measured values taken from PMC4355236.
# T1: POT1 (Homo sapiens, UniProt Q9NUX5 1-634)
# T1 sequence: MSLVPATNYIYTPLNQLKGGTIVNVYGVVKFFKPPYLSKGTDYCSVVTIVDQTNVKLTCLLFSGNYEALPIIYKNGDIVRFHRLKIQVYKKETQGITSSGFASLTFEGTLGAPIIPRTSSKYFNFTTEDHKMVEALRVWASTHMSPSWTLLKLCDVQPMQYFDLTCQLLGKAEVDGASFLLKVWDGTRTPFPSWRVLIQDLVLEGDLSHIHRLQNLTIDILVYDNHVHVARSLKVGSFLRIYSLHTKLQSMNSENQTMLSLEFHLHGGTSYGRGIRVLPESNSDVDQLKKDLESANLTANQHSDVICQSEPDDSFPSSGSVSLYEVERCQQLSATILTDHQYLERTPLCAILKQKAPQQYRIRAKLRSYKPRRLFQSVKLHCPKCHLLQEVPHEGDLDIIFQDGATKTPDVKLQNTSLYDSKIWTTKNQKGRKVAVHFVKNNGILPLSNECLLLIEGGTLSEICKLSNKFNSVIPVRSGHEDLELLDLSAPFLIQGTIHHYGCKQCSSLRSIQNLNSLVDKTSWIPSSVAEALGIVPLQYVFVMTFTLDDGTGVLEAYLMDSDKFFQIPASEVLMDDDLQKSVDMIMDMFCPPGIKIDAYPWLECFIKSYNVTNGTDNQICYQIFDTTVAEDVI
# Target: T1, POT1
# Experiment: EMSA
binder,measurement,value
TTAGGGTTAGCGTTAGGGTT (ssDNA) [primer a5TT],Kd,50 nM
